Here are results for two proteins from publication PMC4336473, “Role of L-alanine for redox self-sufficient amination of alcohols” (Microbial Cell Factories, 2015).

Substrate in series [1]: C[C@H](N)C(=O)O
Nature of the series: HPLC of hexylamine formation, crude extract. Type of series: biochemical, Chromobacterium violaceum. The conditions noted are these: 10 mM hexanal as acceptor, potassium phosphate pH 7.4 (50 mM in results, 100 mM in methods), 37°C. The source says:
HPLC of hexylamine formation, crude extract on TaCv (transaminase from Chromobacterium violaceum)

Substrate in series [2]: C[C@H](N)C(=O)O
Nature of the series: HPLC of hexylamine formation, crude extract. Type of series: biochemical, Vibrio fluvialis. The following applies: 10 mM hexanal as acceptor, potassium phosphate pH 7.4 (50 mM in results, 100 mM in methods), 37°C. An excerpt:
HPLC of hexylamine formation, crude extract on TaVf (transaminase from Vibrio fluvialis)

B1: TaCv (transaminase from Chromobacterium violaceum) (Chromobacterium violaceum ATCC 12472) (protein)
chain: MQKQRTTSQWRELDAAHHLHPFTDTASLNQAGARVMTRGEGVYLWDSEGNKIIDGMAGLWCVNVGYGRKDFAEAARRQMEELPFYNTFFKTTHPAVVELSSLLAEVTPAGFDRVFYTNSGSESVDTMIRMVRRYWDVQGKPEKKTLIGRWNGYHGSTIGGASLGGMKYMHEQGDLPIPGMAHIEQPWWYKHGKDMTPDEFGVVAARWLEEKILEIGADKVAAFVGEPIQGAGGVIVPPATYWPEIERICRKYDVLLVADEVICGFGRTGEWFGHQHFGFQPDLFTAAKGLSSGYLPIGAVFVGKRVAEGLIAGGDFNHGFTYSGHPVCAAVAHANVAALRDEGIVQRVKDDIGPYMQKRWRETFSRFEHVDDVRGVGMVQAFTLVKNKAKRELFPDFGEIGTLCRDIFFRNNLIMRACGDHIVSAPPLVMTRAEVDEMLAVAERCLEEFEQTLKARGLA
notes: full length, codon-optimized, untagged by primers (pTrc99A-taCv), E. coli W3110 crude extract
As usually defined, the Km is the concentration of substrate that gives half-maximal velocity. For orientation: Vmax means the rate approached at saturating substrate. As to B1, in series [1], the Km came out at 35.00 ± 2.20 mM and the maximum rate (Vmax) was found to be 2 µmol/min/mg.

B2: TaVf (transaminase from Vibrio fluvialis) (Vibrio fluvialis) (protein)
chain: MNKPQSWEARAETYSLYGFTDMPSLHQRGTVVVTHGEGPYIVDVNGRRYLDANSGLWNMVAGFDHKGLIDAAKAQYERFPGYHAFFGRMSDQTVMLSEKLVEVSPFDSGRVFYTNSGSEANDTMVKMLWFLHAAEGKPQKRKILTRWNAYHGVTAVSASMTGKPYNSVFGLPLPGFVHLTCPHYWRYGEEGETEEQFVARLARELEETIQREGADTIAGFFAEPVMGAGGVIPPAKGYFQAILPILRKYDIPVISDEVICGFGRTGNTWGCVTYDFTPDAIISSKNLTAGFFPMGAVILGPELSKRLETAIEAIEEFPHGFTASGHPVGCAIALKAIDVVMNEGLAENVRRLAPRFEERLKHIAERPNIGEYRGIGFMWALEAVKDKASKTPFDGNLSVSERIANTCTDLGLICRPLGQSVVLCPPFILTEAQMDEMFDKLEKALDKVFAEVA
notes: full length, untagged by primers (pTrc99A-taVf), E. coli W3110 crude extract
Consider B2, for which, in series [2], the Km is 20.00 ± 1.10 mM and the Vmax was found to be 0.3 µmol/min/mg.
